Biological target: TopBP1 BRCT1-6 (UniProt Q92547)
Test: GST-TopBP1 pull-down from cell extract, blot
Conditions: reference: wild-type MEFs, IR-treated; sites S29

binding against the reference: lost
Substance: E2F1 (mouse) (from UniProt Q61501) E2f1 S29A knock-in MEFs, IR-treated
